# Assay results from patent US20130143227A1 (University of Texas, published 2013).
# B1: recombinant human RSPO1 (ligand, UniProt Q2MKA7 21-263, looked up)
# chain: SRGIKGKRQRRISAEGSQACAKGCELCSEVNGCLKCSPKLFILLERNDIRQVGVCLPSCPPGYFDARNPDMNKCIKCKIEHCEACFSHNFCTKCKEGLYLHKGRCYPACPEGSSAANGTMECSSPAQCEMSEWSPWGPCSKKQQLCGFRRGSEERTRRVLHAPVGDHAACSDTKETRRCTVRRVPCPEGQKRRKGGQGRRENANRNLARKESKEAGAGSRRRKGQQQQQQQGTVGPLTSAGPA
# notes: Bought from R&D Systems; also called R-spondin 1
# B2: recombinant human RSPO2 (ligand, UniProt Q6UXX9 22-243, looked up)
# chain: QGNRWRRSKRASYVSNPICKGCLSCSKDNGCSRCQQKLFFFLRREGMRQYGECLHSCPSGYYGHRAPDMNRCARCRIENCDSCFSKDFCTKCKVGFYLHRGRCFDECPDGFAPLEETMECVEGCEVGHWSEWGTCSRNNRTCGFKWGLETRTRQIVKKPVKDTILCPTIAESRRCKMTMRHCPGGKRTPKAKEKRNKKKKRKLIERAQEQHSVFLATDRANQ
# notes: Bought from R&D Systems; also called R-spondin 2
# B3: recombinant human RSPO4 (ligand)
# chain: LNRRKKQVGTGLGGNCTGCIICSEENGCSTCQQRLFLFIRREGIRQYGKCLHDCPPGYFGIRGQEVNRCKKCGATCESCFSQDFCIRCKRQFYLYKGKCLPTCPPGTLAHQNTRECQGECELGPWGGWSPCTHNGKTCGSAWGLESRVREAGRAGHEEAATCQVLSESRKCPIQRPCPGERSPGQKKGRKDRRPRKDRKLDRRLDVRPRQPGLQP
# notes: Bought from R&D Systems; also called R-spondin 4
# B4: recombinant human RSPO3 (ligand)
# chain: QNASRGRRQRRMHPNVSQGCQGGCATCSDYNGCLSCKPRLFFALERIGMKQIGVCLSSCPSGYYGTRYPDINKCTKCKADCDTCFNKNFCTKCKSGFYLHLGKCLDNCPEGLEANNHTMECVSIVHCEVSEWNPWSPCTKKGKTCGFKRGTETRVREIIQHPSAKGNLCPPTNETRKCTVQRKKCQKGERGKKGRERKRKKPNKGESKEAIPDSKSLESSKEIPEQRENKQQQKKRKVQDKQKSVSVSTVH
# notes: Bought from R&D Systems; also called R-spondin 3
# Target: T1, Myc-LGR5 (human LGR5, predicted mature form aa21-907, N-terminal Myc tag), expressed on HEK293 cells (human, UniProt O75473 22-907)
# T1 construct: Residues 21-907 are counted on NP-003658
# T1 sequence: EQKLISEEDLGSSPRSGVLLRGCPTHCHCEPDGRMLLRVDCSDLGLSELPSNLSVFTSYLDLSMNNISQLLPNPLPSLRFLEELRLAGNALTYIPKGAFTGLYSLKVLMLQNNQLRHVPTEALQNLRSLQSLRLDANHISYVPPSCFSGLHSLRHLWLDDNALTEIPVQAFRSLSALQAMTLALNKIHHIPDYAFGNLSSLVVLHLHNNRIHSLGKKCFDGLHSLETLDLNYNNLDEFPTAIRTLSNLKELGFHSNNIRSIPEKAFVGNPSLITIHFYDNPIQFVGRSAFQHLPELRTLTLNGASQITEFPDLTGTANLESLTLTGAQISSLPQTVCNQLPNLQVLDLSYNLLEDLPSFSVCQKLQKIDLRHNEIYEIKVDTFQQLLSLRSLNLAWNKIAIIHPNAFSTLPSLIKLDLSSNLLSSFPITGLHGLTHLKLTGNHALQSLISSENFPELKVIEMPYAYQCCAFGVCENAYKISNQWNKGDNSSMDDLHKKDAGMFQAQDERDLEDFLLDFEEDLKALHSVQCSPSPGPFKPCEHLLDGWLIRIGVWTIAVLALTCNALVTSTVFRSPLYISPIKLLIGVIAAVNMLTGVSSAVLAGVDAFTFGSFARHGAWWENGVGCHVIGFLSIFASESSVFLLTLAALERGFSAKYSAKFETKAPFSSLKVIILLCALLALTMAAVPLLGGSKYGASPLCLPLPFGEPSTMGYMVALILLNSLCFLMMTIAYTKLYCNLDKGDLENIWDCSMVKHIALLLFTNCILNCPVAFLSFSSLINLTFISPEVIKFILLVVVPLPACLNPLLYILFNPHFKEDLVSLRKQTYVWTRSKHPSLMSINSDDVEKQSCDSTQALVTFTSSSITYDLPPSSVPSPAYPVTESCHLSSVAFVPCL
# Assay: whole-cell fluorescence competition binding, displacement of mRSPO1-Fc (~5 nM) from HEK293 cells expressing Myc-LGR5
# Description: (§1) A fluorescence-based whole-cell competition binding assay was developed to determine whether purified, recombinant RSP01-4 could compete with mRSPO1-Fc for binding to LGR4-6. HEK293 cells stably expressing Myc-LGR4, Myc-LGR5, or FLAG-LGR6 were seeded into poly-D-lysine-coated 96-well black/clear bottom plates (Becton Dickinson) at ˜60,000 cells/well. After overnight culturing, the plates were chilled on ice for 5 min, media were removed from each well, and the cells were washed twice with cold PBS. The recombinant RSPOs under investigation were diluted in 3-fold serial dilutions in cold OPTI-MEM®+0.5% BSA and added onto the cells at 50 μl/well, followed immediately by the addition of equal volume of mRSPO1-Fc diluted by 1:100 in the same buffer. The cells were the incubated for 3.5 hrs at 4° C. with gentle agitation, followed by three quick washes with cold PBS. The cells were then fixed in 4% paraformaldehyde/PBS for 15 min at room temperature and washed 3× with PBS. The cells were further incubated with Alexa Fluor® 647-labeled goat anti-mouse IgG (H+L) (Invitrogen, diluted by 1:200) in OPTI-MEM®+0.5% BSA for 1 hr at room temperature. The cells were washed thrice with PBS and fluorescence intensity was measured using a Tecan M1000 plate reader with excitation at 630 nm and emission at 670 nm. All experiments were performed at least twice with quadruplicate replicates in each experiment. HEK293 cells stably expressing Myc-LGR4 (shown in FIG. 4B), Myc-LGR5 (shown in FIG. 4C), or FLAG-LGR6 (shown in FIG. 4D) were incubated with mRSPO1Fc at ˜5 nM plus serial dilutions of purified recombinant RSPO1-4 for 3-4 hrs at 4° C. Binding of mRSPO1-Fc was detected with Alexa Fluor® 647-labeled anti-mouse IgG. Maximum specific binding is defined by the difference between the data of with and without mRSPO1-Fc which is approximately 50% of total binding in general. All error bars are S.E.M. (n=4). […] As shown in FIGS. 4B-D, RSPO1-4 were able to completely displace the binding of mRSPO1-Fc to LGR4-6 with IC50's in the nM range, the one exception was the μM IC50's for RSPO3 (SEQ ID NO:46; SEQ ID NO:47) and RSPO4 (SEQ ID NO:48; SEQ ID NO:49) binding to LGR4.
row,Binder,IC50 [nM]
1,B1,4
2,B2,0.5
3,B3,11
4,B4,2.1

# Target: T1, Myc-LGR5 (human LGR5, predicted mature …)
# Assay: cell-based or functional assay
Binder,"potency (EC50, nM), β-catenin reporter (Super 8x TOPFlash) with Wnt3a CM [nM]","maximum effect (Emax, fraction of vector control), β-catenin reporter"
B1,0.008,
B2,0.001,1 fraction of vector control
B3,0.4,
B4,0.01,1.1 fraction of vector control

# Target: T2, FLAG-LGR6 (human LGR6, predicted mature form aa25-967, N-terminal FLAG tag), expressed on HEK293 cells (human, UniProt Q9HBX8 26-967)
# T2 sequence: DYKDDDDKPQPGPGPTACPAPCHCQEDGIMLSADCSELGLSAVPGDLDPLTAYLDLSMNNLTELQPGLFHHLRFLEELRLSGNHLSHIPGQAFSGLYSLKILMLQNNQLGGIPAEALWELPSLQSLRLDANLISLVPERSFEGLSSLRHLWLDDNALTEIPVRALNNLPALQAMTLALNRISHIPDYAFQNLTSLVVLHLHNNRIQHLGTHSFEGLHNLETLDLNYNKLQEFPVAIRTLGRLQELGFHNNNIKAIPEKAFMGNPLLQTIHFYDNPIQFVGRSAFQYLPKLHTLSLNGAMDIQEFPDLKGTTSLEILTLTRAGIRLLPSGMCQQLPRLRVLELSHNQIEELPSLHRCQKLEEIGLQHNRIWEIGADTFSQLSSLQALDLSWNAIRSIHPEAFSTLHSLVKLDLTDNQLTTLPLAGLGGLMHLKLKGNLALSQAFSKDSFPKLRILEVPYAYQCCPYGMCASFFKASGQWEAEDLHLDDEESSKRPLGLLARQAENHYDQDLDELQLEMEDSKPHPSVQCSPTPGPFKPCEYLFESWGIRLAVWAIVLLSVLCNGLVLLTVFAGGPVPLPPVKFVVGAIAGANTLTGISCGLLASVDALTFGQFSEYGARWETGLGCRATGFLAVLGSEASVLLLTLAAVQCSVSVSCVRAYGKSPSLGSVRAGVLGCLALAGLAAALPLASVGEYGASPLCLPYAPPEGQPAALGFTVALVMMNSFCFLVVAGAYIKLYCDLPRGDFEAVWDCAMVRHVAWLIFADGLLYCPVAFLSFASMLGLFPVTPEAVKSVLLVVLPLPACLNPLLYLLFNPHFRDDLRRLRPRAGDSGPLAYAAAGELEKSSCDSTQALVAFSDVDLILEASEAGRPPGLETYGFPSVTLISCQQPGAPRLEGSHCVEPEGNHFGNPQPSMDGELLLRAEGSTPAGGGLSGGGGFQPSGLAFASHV
# Assay: cell-based or functional assay
Binder,"potency (EC50, nM), β-catenin reporter (Super 8x TOPFlash) with Wnt3a CM [nM]","maximum effect (Emax, fraction of vector control), β-catenin reporter"
B1,0.03,
B2,0.01,0.5 fraction of vector control
B4,0.05,0.5 fraction of vector control

# Target: T3, Myc-LGR4 (mouse LGR4, predicted mature form aa23-951, N-terminal Myc tag), expressed on HEK293 cells (mouse, UniProt A2ARI4 23-951)
# T3 sequence: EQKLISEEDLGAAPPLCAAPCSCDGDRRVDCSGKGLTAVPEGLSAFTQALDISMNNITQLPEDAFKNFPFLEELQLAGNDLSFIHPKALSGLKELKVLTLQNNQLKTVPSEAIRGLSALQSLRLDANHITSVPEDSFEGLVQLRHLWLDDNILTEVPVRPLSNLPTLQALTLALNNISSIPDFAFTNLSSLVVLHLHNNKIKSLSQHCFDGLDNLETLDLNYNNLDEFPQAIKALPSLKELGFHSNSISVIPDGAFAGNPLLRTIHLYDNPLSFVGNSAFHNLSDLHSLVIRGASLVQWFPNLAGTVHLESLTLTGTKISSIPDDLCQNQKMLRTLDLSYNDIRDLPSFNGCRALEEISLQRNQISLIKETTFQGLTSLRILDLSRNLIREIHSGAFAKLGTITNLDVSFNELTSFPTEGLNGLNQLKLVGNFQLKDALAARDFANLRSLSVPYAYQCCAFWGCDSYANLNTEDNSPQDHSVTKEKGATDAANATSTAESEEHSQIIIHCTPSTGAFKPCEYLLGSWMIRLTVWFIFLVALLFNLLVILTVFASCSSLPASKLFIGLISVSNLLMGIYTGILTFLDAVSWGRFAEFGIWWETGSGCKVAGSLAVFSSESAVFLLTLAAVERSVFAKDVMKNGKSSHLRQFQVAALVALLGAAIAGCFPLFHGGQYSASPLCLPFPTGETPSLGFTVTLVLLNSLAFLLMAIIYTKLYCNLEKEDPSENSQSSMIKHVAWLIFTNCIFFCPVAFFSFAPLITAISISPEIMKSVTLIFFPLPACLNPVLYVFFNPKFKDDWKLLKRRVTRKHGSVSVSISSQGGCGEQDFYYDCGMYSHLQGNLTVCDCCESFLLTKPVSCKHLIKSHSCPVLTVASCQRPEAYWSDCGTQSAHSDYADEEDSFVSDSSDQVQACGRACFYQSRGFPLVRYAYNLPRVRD
# Assay: cell-based or functional assay
Binder,"potency (EC50, nM), β-catenin reporter (Super 8x TOPFlash) with Wnt3a CM [nM]","maximum effect (Emax, fraction of vector control), β-catenin reporter"
B1,0.02,
B2,0.0003,0.9 fraction of vector control
B3,0.09,
B4,0.02,0.9 fraction of vector control

# Target: T3, Myc-LGR4 (mouse LGR4, predicted mature …)
# Assay: whole-cell fluorescence competition binding, displacement of mRSPO1-Fc (~5 nM) from HEK293 cells expressing Myc-LGR4
# Description: as §1
row,Binder,IC50 [nM]
1,B1,25
2,B2,2.3
3,B3,228
4,B4,126

# Target: T2, FLAG-LGR6 (human LGR6, predicted mature …)
# Assay: cell-based or functional assay
# Remark: another data set of the same source
row,Binder,"fold change of EC50 against vector-transfected cells, β-catenin reporter [fold]"
1,B1,20
2,B2,20

# Target: T2, FLAG-LGR6 (human LGR6, predicted mature …)
# Assay: whole-cell fluorescence competition binding, displacement of mRSPO1-Fc (~5 nM) from HEK293 cells expressing FLAG-LGR6
# Description: as §1
row,Binder,IC50 [nM]
1,B1,3.3
2,B2,0.5
3,B3,7.7
4,B4,1.3
